We go through 1 molecule from patent CN111349168A (DONGGUAN PENGZHI BIOTECHNOLOGY CO LTD, dated 2020).

This experiment has as its target T1, CKMB(PAJ18) (human, UniProt P06732 1-381; P12277 1-381).
T1 construct: Antigen reagent named only as CKMB(PAJ18); Its source and construct are not described; also called 杂化型肌酸激酶同工酶; CKMB抗原
The experiment can be described thus: biolayer interferometry, antibody captured on AMC sensor, CKMB in solution. A general note: Biolayer interferometry detects binding as a change in optical thickness at a sensor tip.

T1 sequence (P06732 whole entry, chain 1 of 2): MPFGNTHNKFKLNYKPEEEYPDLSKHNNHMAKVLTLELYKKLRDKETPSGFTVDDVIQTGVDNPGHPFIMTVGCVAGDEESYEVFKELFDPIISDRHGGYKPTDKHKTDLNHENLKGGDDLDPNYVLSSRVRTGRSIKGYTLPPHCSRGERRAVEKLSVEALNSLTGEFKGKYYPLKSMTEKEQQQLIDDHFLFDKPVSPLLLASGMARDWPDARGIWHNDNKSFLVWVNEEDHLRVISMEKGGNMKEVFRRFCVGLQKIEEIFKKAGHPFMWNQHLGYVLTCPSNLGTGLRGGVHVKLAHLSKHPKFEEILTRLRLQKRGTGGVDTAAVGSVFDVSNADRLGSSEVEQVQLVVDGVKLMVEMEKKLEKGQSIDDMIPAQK
T1 sequence (P12277 whole entry, chain 2 of 2): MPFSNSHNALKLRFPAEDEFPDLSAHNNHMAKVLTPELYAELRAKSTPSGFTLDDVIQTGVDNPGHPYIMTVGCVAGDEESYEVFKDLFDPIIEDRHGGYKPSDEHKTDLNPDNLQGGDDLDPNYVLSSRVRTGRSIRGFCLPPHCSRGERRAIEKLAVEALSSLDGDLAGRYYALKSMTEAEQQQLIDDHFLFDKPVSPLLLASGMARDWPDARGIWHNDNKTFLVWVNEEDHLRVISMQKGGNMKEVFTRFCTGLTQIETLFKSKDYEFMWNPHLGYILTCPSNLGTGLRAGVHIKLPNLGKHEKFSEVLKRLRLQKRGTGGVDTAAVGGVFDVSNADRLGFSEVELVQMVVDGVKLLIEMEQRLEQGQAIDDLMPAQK

B1: Anti-CKMB 10C5 recombinant antibody (WT) (antibody, V domains shown)
VH: DVQLQESGPGLVKPSQTMSLTCTVTGVSITTGTDRWSWIRQFPGNKLEWIGYIFYSGTLTYNPSVTSRTTITRDTSKNQFFLEMNSLTAEDTATYYCARERTYYPYGYFDVFGTGTTVTVSS
VL: DIQMNQSPSSLSASLGDTITITCHGSNNINIWLSWYQQKPGNTPKLLIYKGSDIHTGVSSRFSGSGSGTAFTLTISSLQPEDIATYYCQQAQSYAWTWGGGTKLEIK
On to B1, for which the Kd (as a rule, a measure of binding affinity in units of concentration) worked out at 77.6 nM; the koff (usually the rate constant with which the complex falls apart) is 0.00512 s⁻¹; the kon – broadly, a measure of how fast the partners come together – amounted to 66000 M⁻¹ s⁻¹.
